Experimental data as given in US20220098306A1 (Xencor, published 2022).

T1: mouse Fc fusion of B7H3, full extracellular V1C1-V2C2 domain (human, UniProt Q5ZPR3 29-466)
T1 construct: extracellular domain; Fusions of the single V1C1 and V2C2 domains were tested as well; also called B7H3 antigen; printed 'V1C1-V2V2'; not shown: mouse Fc
T1 sequence (looked up): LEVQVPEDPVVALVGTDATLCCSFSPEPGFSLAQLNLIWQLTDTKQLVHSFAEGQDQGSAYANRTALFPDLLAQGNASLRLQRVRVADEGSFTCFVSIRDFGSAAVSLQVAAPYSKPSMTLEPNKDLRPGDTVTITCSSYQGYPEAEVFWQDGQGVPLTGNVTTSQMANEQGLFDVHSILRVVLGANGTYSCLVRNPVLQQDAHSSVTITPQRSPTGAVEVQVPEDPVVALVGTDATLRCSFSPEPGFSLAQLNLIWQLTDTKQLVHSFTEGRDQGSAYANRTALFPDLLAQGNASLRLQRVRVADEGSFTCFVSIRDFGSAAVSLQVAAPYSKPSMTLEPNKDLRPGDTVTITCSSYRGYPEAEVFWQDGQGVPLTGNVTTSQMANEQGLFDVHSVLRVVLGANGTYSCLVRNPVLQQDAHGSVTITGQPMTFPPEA

T2: B7H3 (antigen of the affinity statements) (human, UniProt Q5ZPR3 29-466, limits assumed)
T2 construct: also called CD276
T2 sequence (looked up): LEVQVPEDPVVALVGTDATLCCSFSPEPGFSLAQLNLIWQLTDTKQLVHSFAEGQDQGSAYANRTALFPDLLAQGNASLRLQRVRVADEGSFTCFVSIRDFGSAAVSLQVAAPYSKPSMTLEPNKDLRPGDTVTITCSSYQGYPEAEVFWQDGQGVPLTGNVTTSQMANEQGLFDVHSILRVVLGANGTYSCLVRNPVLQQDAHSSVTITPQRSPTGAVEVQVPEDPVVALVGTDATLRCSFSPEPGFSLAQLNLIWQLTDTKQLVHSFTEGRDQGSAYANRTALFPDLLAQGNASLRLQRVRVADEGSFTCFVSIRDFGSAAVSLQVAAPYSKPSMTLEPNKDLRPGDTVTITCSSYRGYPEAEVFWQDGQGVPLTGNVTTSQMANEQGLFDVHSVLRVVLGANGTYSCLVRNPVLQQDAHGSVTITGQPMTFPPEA


Columns and labels:
[1] = target: T1, mouse Fc fusion of B7H3, full …; assay: Octet (BLI), B7H3 mouse Fc fusions on anti-mouse Fc biosensors, 1:1 Langmuir fit
Excerpt: (§1) To investigate whether the difference observed for XENP34339 resulted from the difference in B7H3 binding domain or the difference in bispecific antibody format, the component binding domains of XENP34339 and XENP34389 were biophysically characterized using Octet. […] Anti-mouse Fc biosensors were used to capture mouse Fc fusions of B7H3, either the full extracellular V1C1-[…] domain or the individual V1C1 or V2C2 domains, and dipped into multiple concentrations of XENP34717 or XENP34728. Kinetic analyses were performed by global fitting of binding data with a 1:1 Langmuir binding model. […] Next, the binding affinities of the CD28 binding domains for CD28 antigen in the 2+1 CLC format and the 2+1 Fab2-scFv-Fc format was investigated. Anti-HIS capture (HIS1K) biosensors were used to capture CD28-Fc-His protein and dipped into multiple concentrations of XENP34339 or XENP34389. Kinetic analyses were performed by global fitting of binding data with a 1:1 Langmuir binding model as well as steady state model. The resulting dissociation constant (KD) are depicted in FIG. 53.

[2] = target: T2, B7H3 (antigen of the affinity …); assay: monovalent affinity in 1+1 bsAb format (Example 2B)
CD28-Fc-His protein = target: T3, CD28-Fc-His protein (human, UniProt P10747 19-152); assay: Octet (BLI), CD28-Fc-His on HIS1K biosensors, 1:1 Langmuir and steady state fits
T3 construct: Captured on anti-HIS (HIS1K) biosensors; also called CD28 antigen; not shown: Fc; His tag
Excerpt: as §1

Binder | binding result [2] | also measured
XENP34717 (bispecific antibody, copies: 1 + 1 + 2) heavy 1: EVQLLESGGGLVQPGGSLRLSCAASGFTFSSYYMSWVRQAPGKGLEWVSTISESGDSTYYADSVKGRFTISRDNSKNTLYLQMNSLRAEDTAVYYCAKSGPGLRQVGFDYWGQGTLVTVSSASTKGPSVFPLAPSSKSTSGGTAALGCLVKDYFPEPVTVSWNSGALTSGVHTFPAVLQSSGLYSLSSVVTVPSSSLGTQTYICNVNHKPSDTKVDKKVEPKSCDKTHTCPPCPAPPVAGPSVFLFPPKPKDTLMISRTPEVTCVVVDVKHEDPEVKFNWYVDGVEVHNAKTKPREEEYNSTYRVVSVLTVLHQDWLNGKEYKCKVSNKALPAPIEKTISKAKGQPREPQVYTLPPSREEMTKNQVSLTCDVSGFYPSDIAVEWESDGQPENNYKTTPPVLDSDGSFFLYSKLTVDKSRWEQGDVFSCSVMHEALHNHYTQKSLSLSPGK heavy 2: QVQLVQSGAEVKKPGASVKVSCKASGYIFTNNYMHWVRQAPGQGLEWMGIISPSVGRTAYAQKFQGRVTMTRDTSTSTVYMELSSLRSEDTAVYYCARGGGSSPRLDYWGQGTLVTVSSASTKGPSVFPLAPSSKSTSGGTAALGCLVKDYFPEPVTVSWNSGALTSGVHTFPAVLQSSGLYSLSSVVTVPSSSLGTQTYICNVNHKPSNTKVDKKVEPKSCDKTHTCPPCPAPPVAGPSVFLFPPKPKDTLMISRTPEVTCVVVDVKHEDPEVKFNWYVDGVEVHNAKTKPREEQYNSTYRVVSVLTVLHQDWLNGKEYKCKVSNKALPAPIEKTISKAKGQPREPQVYTLPPSREQMTKNQVKLTCLVKGFYPSDIAVEWESNGQPENNYKTTPPVLDSDGSFFLYSKLTVDKSRWQQGNVFSCSVMHEALHNHYTQKSLSLSPGK light: not shown |  | binding result [1]: binds
XENP35153 (bispecific antibody, 1+1 Fab-scFv-Fc; copies: 1 + 1 + 1) heavy: EVQLLESGGGLVQPGGSLRLSCAVSGFSLSSYGVIWVRQAPGKGLEYVSWVSSGGSTNYASSVKGRFTISRDTSKNTVYLQMNSLRAEDTAVYFCARGATNSGTDIWGPGTLVTVSSASTKGPSVFPLAPSSKSTSGGTAALGCLVKDYFPEPVTVSWNSGALTSGVHTFPAVLQSSGLYSLSSVVTVPSSSLGTQTYICNVNHKPSDTKVDKKVEPKSCDKTHTCPPCPAPPVAGPSVFLFPPKPKDTLMISRTPEVTCVVVDVKHEDPEVKFNWYVDGVEVHNAKTKPREEEYNSTYRVVSVLTVLHQDWLNGKEYKCKVSNKALPAPIEKTISKAKGQPREPQVYTLPPSREEMTKNQVSLTCDVSGFYPSDIAVEWESDGQPENNYKTTPPVLDSDGSFFLYSKLTVDKSRWEQGDVFSCSVLHEALHSHYTQKSLSLSPGK scFv-Fc: not shown light: DIVMTQSPSSLSASVGDRVTITCRASQSINSWLSWYQQKPGKPPKLLIYGASNLASGVPSRFKGSGSGTDFTLTISSLQPEDFATYYCQNNYGIIAAGATFGGGTKVEIKRTVAAPSVFIFPPSDEQLKSGTASVVCLLNNFYPREAKVQWKVDNALQSGNSQESVTEQDSKDSTYSLSSTLTLSKADYEKHKVYACEVTHQGLSSPVTKSFNRGEC | binds | 
XENP34732 (bispecific antibody, 1+1 Fab-scFv-Fc; copies: 1 + 1 + 1) heavy: EVQLLESGGGLVQPGGSLRLSCAASGFTFSNYYMAWVRQAPGKGLEWVSSISTGGGSTYYRDSVKGRFTISRDNSKSTLYLQMNSLRAEDTAVYYCTTDLSAIAATPFAYWGQGTLVTVSSASTKGPSVFPLAPSSKSTSGGTAALGCLVKDYFPEPVTVSWNSGALTSGVHTFPAVLQSSGLYSLSSVVTVPSSSLGTQTYICNVNHKPSDTKVDKKVEPKSCDKTHTCPPCPAPPVAGPSVFLFPPKPKDTLMISRTPEVTCVVVDVKHEDPEVKFNWYVDGVEVHNAKTKPREEEYNSTYRVVSVLTVLHQDWLNGKEYKCKVSNKALPAPIEKTISKAKGQPREPQVYTLPPSREEMTKNQVSLTCDVSGFYPSDIAVEWESDGQPENNYKTTPPVLDSDGSFFLYSKLTVDKSRWEQGDVFSCSVLHEALHSHYTQKSLSLSPGK scFv-Fc: not shown light: DIQMTQSPSSLSASVGDRVTITCRASQNIYTSLAWYQQKPGKAPKLLIYNAHSLQTGIPSRFSGSGSGADFTLTISSLQPEDFATYFCQQYYSGLTFGSGTKLEIKRTVAAPSVFIFPPSDEQLKSGTASVVCLLNNFYPREAKVQWKVDNALQSGNSQESVTEQDSKDSTYSLSSTLTLSKADYEKHKVYACEVTHQGLSSPVTKSFNRGEC | binds | 
XENP34389 (bispecific antibody, 2+1 Fab2-scFv-Fc; also called B7H3 x CD28 in 2+1 Fab2-scFv-Fc format; copies: 1 + 1 + 2) heavy 1: EVQLLESGGGLVQPGGSLRLSCAASGFTFSNYYMAWVRQAPGKGLEWVSSISTGGGSTYYRDSVKGRFTISRDNSKSTLYLQMNSLRAEDTAVYYCTTDLSAIAATPFAYWGQGTLVTVSSASTKGPSVFPLAPSSKSTSGGTAALGCLVKDYFPEPVTVSWNSGALTSGVHTFPAVLQSSGLYSLSSVVTVPSSSLGTQTYICNVNHKPSDTKVDKKVEPKSCDKTHTCPPCPAPPVAGPSVFLFPPKPKDTLMISRTPEVTCVVVDVKHEDPEVKFNWYVDGVEVHNAKTKPREEEYNSTYRVVSVLTVLHQDWLNGKEYKCKVSNKALPAPIEKTISKAKGQPREPQVYTLPPSREEMTKNQVSLTCDVSGFYPSDIAVEWESDGQPENNYKTTPPVLDSDGSFFLYSKLTVDKSRWEQGDVFSCSVMHEALHNHYTQKSLSLSPGK heavy 2: not shown light: DIQMTQSPSSLSASVGDRVTITCRASQNIYTSLAWYQQKPGKAPKLLIYNAHSLQTGIPSRFSGSGSGADFTLTISSLQPEDFATYFCQQYYSGLTFGSGTKLEIKRTVAAPSVFIFPPSDEQLKSGTASVVCLLNNFYPREAKVQWKVDNALQSGNSQESVTEQDSKDSTYSLSSTLTLSKADYEKHKVYACEVTHQGLSSPVTKSFNRGEC |  | binding result (CD28-Fc-His protein): binds
